Reference: patent US20210292392A1 (TSB THERAPEUTICS BEIJING, published 2021)

Tests used:
[1] = target: T1, full length spike of SARS-CoV (SARS-CoV, UniProt P59594 14-1255); test: FACS, HEK 293T cells expressing the full length spike, anti-human IgG Fc PE
T1 construct: whole, on cells

[2] = target: T2, full length spike of MERS-CoV (MERS-CoV, UniProt K9N5Q8 18-1353); test: as above
T2 construct: whole, on cells

[3] = target: recombinant RBD of the spike protein of SARS-CoV (SARS-CoV, UniProt P59594 306-527); test: SPR, RBD on CM5 chip

T2 sequence (K9N5Q8 18-751, chain 1 of 2): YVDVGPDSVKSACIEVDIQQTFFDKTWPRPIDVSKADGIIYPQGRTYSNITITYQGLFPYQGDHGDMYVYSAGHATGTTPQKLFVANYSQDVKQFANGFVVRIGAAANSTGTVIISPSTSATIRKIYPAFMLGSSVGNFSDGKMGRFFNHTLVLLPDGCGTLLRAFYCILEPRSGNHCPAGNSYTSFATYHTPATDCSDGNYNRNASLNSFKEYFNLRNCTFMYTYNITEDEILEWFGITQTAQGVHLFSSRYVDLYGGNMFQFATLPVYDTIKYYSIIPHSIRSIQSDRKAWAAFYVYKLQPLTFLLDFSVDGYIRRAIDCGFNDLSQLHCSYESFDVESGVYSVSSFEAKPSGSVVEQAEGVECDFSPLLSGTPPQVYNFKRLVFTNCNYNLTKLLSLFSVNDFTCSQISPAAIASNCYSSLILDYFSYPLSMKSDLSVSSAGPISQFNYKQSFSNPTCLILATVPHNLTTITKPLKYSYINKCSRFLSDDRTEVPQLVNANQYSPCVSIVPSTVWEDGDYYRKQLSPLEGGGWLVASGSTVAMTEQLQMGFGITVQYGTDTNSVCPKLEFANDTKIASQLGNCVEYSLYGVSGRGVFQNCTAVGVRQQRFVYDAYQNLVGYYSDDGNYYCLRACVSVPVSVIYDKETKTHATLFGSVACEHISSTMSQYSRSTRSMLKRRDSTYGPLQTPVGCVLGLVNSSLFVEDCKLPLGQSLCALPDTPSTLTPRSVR
T2 sequence (K9N5Q8 752-1353, chain 2 of 2): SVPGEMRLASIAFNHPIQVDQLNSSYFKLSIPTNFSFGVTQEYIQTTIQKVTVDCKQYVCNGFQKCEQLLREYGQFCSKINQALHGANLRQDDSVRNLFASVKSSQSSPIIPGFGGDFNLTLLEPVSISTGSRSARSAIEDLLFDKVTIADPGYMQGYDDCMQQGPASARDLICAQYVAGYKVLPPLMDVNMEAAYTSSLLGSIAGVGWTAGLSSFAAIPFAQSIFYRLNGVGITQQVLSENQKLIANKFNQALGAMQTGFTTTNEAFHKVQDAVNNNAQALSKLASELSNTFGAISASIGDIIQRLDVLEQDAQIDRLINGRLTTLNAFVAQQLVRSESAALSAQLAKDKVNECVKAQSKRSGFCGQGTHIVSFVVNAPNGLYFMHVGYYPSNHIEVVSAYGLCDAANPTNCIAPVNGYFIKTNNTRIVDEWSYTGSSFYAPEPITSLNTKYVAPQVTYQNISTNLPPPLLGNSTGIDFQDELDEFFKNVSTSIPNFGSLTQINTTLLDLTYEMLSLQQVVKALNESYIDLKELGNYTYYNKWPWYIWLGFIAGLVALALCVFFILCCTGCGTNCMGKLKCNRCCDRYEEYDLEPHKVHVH

B1: P1A-1C10 (antibody, V domains shown)
VH: QVQLVQSGAEVKNPGSSVKVSCKAGGGTSSFYDINWVRQAPGQGLEWIGKIIPRLDIADYAQKSQGRVTITADKSTSTVYLELSSLKSDDTAVYFCARGRPGSEWAYGPFDLWGQGTLVTVSS
VL: DIQMTQSPSTLSASVGDRVTITCRASQSSRAWLAWYQQKPGKAPKLLISKASSLESGVPSRFSGSGYGTEFTLTISSLQPDDSATYYCHQYNSSPFTFGPGTKVQIKR
notes: human IgG1, kappa
**Q.** Which results are given for B1?
**A.** binding result [1]: no binding (tested: 20 µg/ml); binding result [2]: no binding (tested: 20 µg/ml); binding result [3]: no binding (tested: not printed)
